{"source": "paper PMC7586228", "key": {"[1]": {"experiment": "Golgi residence time, live imaging with CHX", "conditions": "glycan lost; control: DMSO"}, "[2]": {"experiment": "immunofluorescence, colocalisation with GM130", "conditions": "glycan lost; control: DMSO"}}}
{"substance": "transferrin receptor (TfR): GalNAc-O-Bn", "values": [{"measurement": "localisation_or_trafficking", "setting": "[1]", "result": "increases"}, {"measurement": "localisation_or_trafficking", "setting": "[2]", "result": "changes"}]}
